Results: patent publication US5614198A, “Bowman-Birk Inhibitor compositions for treatment of inflammatory disease” (The Trustees of the University of Pennsylvania, priority 1995, dated 1997)
“Also recorded” adds a separate entry of the source.

B1: BBI: protease inhibitor derived from soybeans; 71 amino acid chain with 7 disulfide bonds, molecular weight approximately 8000 (protein, UniProt P01055 40-110, looked up)
Bowman-Birk type proteinase …: DDESSKPCCDQCACTKSNPPQCRCSDMRLNSCHSACKSCICALSYPAQCFCVDITDFCYEPCKPSEDDKEN
B2: SBTI: soybean (Kunitz) trypsin inhibitor (protein, UniProt P01070 25-205, looked up)
Trypsin inhibitor A: DFVLDNEGNPLENGGTYYILSDITAFGGIRAAPTGNERCPLTVVQSRNELDKGIGTIISSPYRIRFIAEGHPLSLKFDSFAVIMLCVGIPTEWSVVEDLPEGPAVKIGENKDAMDGWFRLERVSDDEFNNYKLVFCPQQAEDDKCGDIGISIDHDDGTRRLVVSKNKPLVVQFQKLDKESL
B3: COI: chicken ovoinhibitor (protein, UniProt P10184 1-517, looked up)
Ovoinhibitor: MTDWVLHHKVGPLDMTTRYIFPLLPLPFLPHSESKRAVCAPRCSAMRTARQFVQVALALCCFADIAFGIEVNCSLYASGIGKDGTSWVACPRNLKPVCGTDGSTYSNECGICLYNREHGANVEKEYDGECRPKHVTIDCSPYLQVVRDGNTMVACPRILKPVCGSDSFTYDNECGICAYNAEHHTNISKLHDGECKLEIGSVDCSKYPSTVSKDGRTLVACPRILSPVCGTDGFTYDNECGICAHNAEQRTHVSKKHDGKCRQEIPEIDCDQYPTRKTTGGKLLVRCPRILLPVCGTDGFTYDNECGICAHNAQHGTEVKKSHDGRCKERSTPLDCTQYLSNTQNGEAITACPFILQEVCGTDGVTYSNDCSLCAHNIELGTSVAKKHDGRCREEVPELDCSKYKTSTLKDGRQVVACTMIYDPVCATNGVTYASECTLCAHNLEQRTNLGKRKNGRCEEDITKEHCREFQKVSPICTMEYVPHCGSDGVTYSNRCFFCNAYVQSNRTLNLVSMAAC

Key:
[1] = system: proteolytic activity in colon mucosa; test: proteolytic activity in colon mucosal biopsy samples of DMH-treated rats (MCA substrates); format: in vivo, rat; details: for levels of proteolytic activity in colon mucosa of DMH-exposed animals: one month after last DMH dose, 0.1% dietary BBIC, FIG. 5; for Protease Activity/μg protein, Glt-Gly-Arg-MCA, Mean / Protease Activity/μg protein, Boc-Val-Leu-Lys-MCA, Mean / Protease Activity/μg protein, Boc-Val-Pro-Arg-MCA, Mean: rat colon biopsy one month after last DMH injection (total 80 mg/kg), 0.1% dietary inhibitor where given, 1 animal, 3 samples; for Protease Activity/μg protein, Glt-Gly-Arg-MCA, Mean: control 1.21; for Protease Activity/μg protein, Boc-Val-Leu-Lys-MCA, Mean: control 3.07; for Protease Activity/μg protein, Boc-Val-Pro-Arg-MCA, Mean: control 15.97
Procedure: The levels of proteolytic activity were determined as following. Colon mucosal biopsy samples were thawed on ice and homogenized in ice-cold PBS in a sterile teflon-glass homogenizer. The level of proteolytic activity was measured by incubating aliquots of sample in 0.1M Tris (pH 7.5)-5 mM CaC12, with each of the following synthetic substrates: Boc-Val-Pro-Arg-MCA; Boc-Val-Leu-Lys-MCA; and Glt-Gly-Arg-MCA (Peninsula Laboratories, Inc., Belmont, Calif.). These substrates were selected since it is known that the proteolytic activity cleaving these substrates is affected by BBI. After a 2 hour incubation at 37° C., the reaction was terminated by dilution with 1.8 ml distilled H2 O. Release of the fluorescent reporter group, amino-methyl coumarin, was determined spectrophotometrically at excitation and emission wavelengths of 380 and 460 nm, respectively. […] Data were standardized on the basis of protein content and expressed as proteolytic activity/μg protein.
In these studies, animals were untreated or treated twice weekly for three weeks with DMH. […] One group of treated animals was also exposed to 0.1% dietary BBIC during and after the DMH injection period. Animals were killed one month after the last DMH injection was given. Colon biopsy samples were obtained and proteolytic activity levels were determined as described for the human mucosal biopsy samples.

[2] = system: TPA-activated polymorphonuclear leukocytes (PMNs); details: TPA-activated human PMNs (Frenkel et al.); cited from earlier work
[3] = system: cells of patients with Bloom's syndrome; details: Kennedy et al., 1984; cited from earlier work
trypsin = test: gelatin zymogram, trypsin control lanes; format: biochemical; details: 10 μg/ml; 5 ng trypsin; lanes 4 and 6 vs lane 1
Procedure: BBI or BBIC (at 10 μg/ml) was added to some of the biopsy sample homogenates and protease activity was analyzed on gelatin zymograms. The same rat colon sample from a 14 day DNBS/ethanol treated rat was used for the protease/zymogram analyses. The gel was run at 200 V for 40 minutes and was then cut into pieces. Each gel/column was treated as follows: 1) Control-contained 5 ng trypsin; 2) UC sample incubated in Tris at pH 8.0; 3) UC sample incubated in Tris at pH 8.0 with BBI added to achieve a final concentration of 10 μg/ml; 4) Control-contained 5 ng trypsin with BBI added to achieve a final concentration of 10 μg/ml; 5) UC sample incubated in Tris at pH 8.0 with BBIC added to achieve a final concentration of 10 μg/ml; 6) Control-contained 5 ng trypsin with BBIC added to achieve a final concentration of 10 μg/ml.
Twelve percent sodium diodecyl sulfate (SDS) polyacrylamide gels of 0.75 mm thickness were prepared containing 0.1% gelatin. A 2% gelatin stock was prepared in advance by dissolving gelatin in warm distilled water. Samples were placed in the gel wells in standard SDS-gel-loading buffer that contained 0.1% SDS but lacked beta-mercaptoethanol. They were not boiled prior to loading. The gels were run at 200 V for 40 minutes in a Bio-Rad Mini Protean II apparatus and then soaked in distilled water containing 2% Triton X-100 on a gyrorotary shaker for 15 minutes at 20° C. […]

[4] = system: DMH-induced colon and liver carcinogenesis; details: 0.5% of the diet or less (St. Clair et al.); cited from earlier work
C3H10T1/2 cells = details: Yavelow et al., 1985; cited from earlier work

| Molecule | levels of proteolytic activity in colon mucosa of DMH-exposed animals [1] | Protease Activity/μg protein, Glt-Gly-Arg-MCA, Mean [1] [RFU/hr/Ag protein] | Protease Activity/μg protein, Boc-Val-Leu-Lys-MCA, Mean [1] [RFU/hr/Ag protein] | Protease Activity/μg protein, Boc-Val-Pro-Arg-MCA, Mean [1] [RFU/hr/Ag protein] | order of activity, inhibition of H2O2 formation [2] | levels of chromosome abnormalities [3] | inhibition of proteolytic activity of trypsin (trypsin) | effect upon the health of the mice [4] | radiation induced transformation in C3H10T1/2 cells (C3H10T1/2 cells) |
| --- | --- | --- | --- | --- | --- | --- | --- | --- | --- |
| CNNC [DMH, dimethylhydrazine, reference compound] | highly significant elevation | 6.15 | 10.15 | 43.43 | – | – | – | – | – |
| B1 | not significantly different from control animals; also recorded: reduction in levels of these proteolytic activities | 0.81 | 1.96 | 22.22 | PtI-1≥PCI-2>PtI-2>COI>BBI>TOOI>LBI>SBTI | reduce the levels of chromosome abnormalities | effectively inhibit the proteolytic activity of trypsin | no adverse effect upon the health of the mice | suppresses radiation induced transformation in C3H10T1/2 cells |
| B2 | – | – | – | – | PtI-1≥PCI-2>PtI-2>COI>BBI>TOOI>LBI>SBTI | – | – | – | – |
| B3 | – | – | – | – | PtI-1≥PCI-2>PtI-2>COI>BBI>TOOI>LBI>SBTI | – | – | – | – |
